Source: patent US20110086019A1 (DOMANTIS, published 2011)

Tests used:
[1] = molecular target: human TNFR1 (soluble recombinant protein) (human) (UniProt P19438); test: phage ELISA on plate coated with 1 nM TNFR1, anti-M13-HRP; 0 µg/ml trypsin; phage input 1.13E+10
[2] = molecular target: human TNFR1 (soluble recombinant protein) (human) (UniProt P19438); test: phage ELISA on plate coated with 1 nM TNFR1, anti-M13-HRP; 0 µg/ml trypsin; phage input 1.41E+09
[3] = molecular target: human TNFR1 (soluble recombinant protein) (human) (UniProt P19438); test: phage ELISA on plate coated with 1 nM TNFR1, anti-M13-HRP; 0 µg/ml trypsin; phage input 2.26E+10
[4] = molecular target: human TNFR1 (soluble recombinant protein) (human) (UniProt P19438); test: phage ELISA on plate coated with 1 nM TNFR1, anti-M13-HRP; 0 µg/ml trypsin; phage input 2.82E+09
[5] = molecular target: human TNFR1 (soluble recombinant protein) (human) (UniProt P19438); test: phage ELISA on plate coated with 1 nM TNFR1, anti-M13-HRP; 0 µg/ml trypsin; phage input 3.52E+08
[6] = molecular target: human TNFR1 (soluble recombinant protein) (human) (UniProt P19438); test: phage ELISA on plate coated with 1 nM TNFR1, anti-M13-HRP; 0 µg/ml trypsin; phage input 4.51E+10
[7] = molecular target: human TNFR1 (soluble recombinant protein) (human) (UniProt P19438); test: phage ELISA on plate coated with 1 nM TNFR1, anti-M13-HRP; 0 µg/ml trypsin; phage input 5.64E+09
[8] = molecular target: human TNFR1 (soluble recombinant protein) (human) (UniProt P19438); test: phage ELISA on plate coated with 1 nM TNFR1, anti-M13-HRP; 0 µg/ml trypsin; phage input 7.05E+08
[9] = molecular target: human TNFR1 (soluble recombinant protein) (human) (UniProt P19438); test: phage ELISA on plate coated with 1 nM TNFR1, anti-M13-HRP; phage treated 1 h at room temperature with 1 mg/ml trypsin; phage input 1.13E+10
[10] = molecular target: human TNFR1 (soluble recombinant protein) (human) (UniProt P19438); test: phage ELISA on plate coated with 1 nM TNFR1, anti-M13-HRP; phage treated 1 h at room temperature with 1 mg/ml trypsin; phage input 1.41E+09
[11] = molecular target: human TNFR1 (soluble recombinant protein) (human) (UniProt P19438); test: phage ELISA on plate coated with 1 nM TNFR1, anti-M13-HRP; phage treated 1 h at room temperature with 1 mg/ml trypsin; phage input 2.26E+10
[12] = molecular target: human TNFR1 (soluble recombinant protein) (human) (UniProt P19438); test: phage ELISA on plate coated with 1 nM TNFR1, anti-M13-HRP; phage treated 1 h at room temperature with 1 mg/ml trypsin; phage input 2.82E+09
[13] = molecular target: human TNFR1 (soluble recombinant protein) (human) (UniProt P19438); test: phage ELISA on plate coated with 1 nM TNFR1, anti-M13-HRP; phage treated 1 h at room temperature with 1 mg/ml trypsin; phage input 3.52E+08
[14] = molecular target: human TNFR1 (soluble recombinant protein) (human) (UniProt P19438); test: phage ELISA on plate coated with 1 nM TNFR1, anti-M13-HRP; phage treated 1 h at room temperature with 1 mg/ml trypsin; phage input 4.51E+10
[15] = molecular target: human TNFR1 (soluble recombinant protein) (human) (UniProt P19438); test: phage ELISA on plate coated with 1 nM TNFR1, anti-M13-HRP; phage treated 1 h at room temperature with 1 mg/ml trypsin; phage input 5.64E+09
[16] = molecular target: human TNFR1 (soluble recombinant protein) (human) (UniProt P19438); test: phage ELISA on plate coated with 1 nM TNFR1, anti-M13-HRP; phage treated 1 h at room temperature with 1 mg/ml trypsin; phage input 7.05E+08
[17] = molecular target: human TNFR1 (soluble recombinant protein) (human) (UniProt P19438); test: phage ELISA on plate coated with 1 nM TNFR1, anti-M13-HRP; phage treated 1 h at room temperature with 10 µg/ml trypsin; phage input 1.13E+10
[18] = molecular target: human TNFR1 (soluble recombinant protein) (human) (UniProt P19438); test: phage ELISA on plate coated with 1 nM TNFR1, anti-M13-HRP; phage treated 1 h at room temperature with 10 µg/ml trypsin; phage input 1.41E+09
[19] = molecular target: human TNFR1 (soluble recombinant protein) (human) (UniProt P19438); test: phage ELISA on plate coated with 1 nM TNFR1, anti-M13-HRP; phage treated 1 h at room temperature with 10 µg/ml trypsin; phage input 2.26E+10
[20] = molecular target: human TNFR1 (soluble recombinant protein) (human) (UniProt P19438); test: phage ELISA on plate coated with 1 nM TNFR1, anti-M13-HRP; phage treated 1 h at room temperature with 10 µg/ml trypsin; phage input 2.82E+09
[21] = molecular target: human TNFR1 (soluble recombinant protein) (human) (UniProt P19438); test: phage ELISA on plate coated with 1 nM TNFR1, anti-M13-HRP; phage treated 1 h at room temperature with 10 µg/ml trypsin; phage input 3.52E+08
[22] = molecular target: human TNFR1 (soluble recombinant protein) (human) (UniProt P19438); test: phage ELISA on plate coated with 1 nM TNFR1, anti-M13-HRP; phage treated 1 h at room temperature with 10 µg/ml trypsin; phage input 4.51E+10
[23] = molecular target: human TNFR1 (soluble recombinant protein) (human) (UniProt P19438); test: phage ELISA on plate coated with 1 nM TNFR1, anti-M13-HRP; phage treated 1 h at room temperature with 10 µg/ml trypsin; phage input 5.64E+09
[24] = molecular target: human TNFR1 (soluble recombinant protein) (human) (UniProt P19438); test: phage ELISA on plate coated with 1 nM TNFR1, anti-M13-HRP; phage treated 1 h at room temperature with 10 µg/ml trypsin; phage input 7.05E+08
[25] = molecular target: human TNFR1 (soluble recombinant protein) (human) (UniProt P19438); test: phage ELISA on plate coated with 1 nM TNFR1, anti-M13-HRP; phage treated 1 h at room temperature with 100 µg/ml trypsin; phage input 1.13E+10
[26] = molecular target: human TNFR1 (soluble recombinant protein) (human) (UniProt P19438); test: phage ELISA on plate coated with 1 nM TNFR1, anti-M13-HRP; phage treated 1 h at room temperature with 100 µg/ml trypsin; phage input 1.41E+09
[27] = molecular target: human TNFR1 (soluble recombinant protein) (human) (UniProt P19438); test: phage ELISA on plate coated with 1 nM TNFR1, anti-M13-HRP; phage treated 1 h at room temperature with 100 µg/ml trypsin; phage input 2.26E+10
[28] = molecular target: human TNFR1 (soluble recombinant protein) (human) (UniProt P19438); test: phage ELISA on plate coated with 1 nM TNFR1, anti-M13-HRP; phage treated 1 h at room temperature with 100 µg/ml trypsin; phage input 2.82E+09
[29] = molecular target: human TNFR1 (soluble recombinant protein) (human) (UniProt P19438); test: phage ELISA on plate coated with 1 nM TNFR1, anti-M13-HRP; phage treated 1 h at room temperature with 100 µg/ml trypsin; phage input 3.52E+08
[30] = molecular target: human TNFR1 (soluble recombinant protein) (human) (UniProt P19438); test: phage ELISA on plate coated with 1 nM TNFR1, anti-M13-HRP; phage treated 1 h at room temperature with 100 µg/ml trypsin; phage input 4.51E+10
[31] = molecular target: human TNFR1 (soluble recombinant protein) (human) (UniProt P19438); test: phage ELISA on plate coated with 1 nM TNFR1, anti-M13-HRP; phage treated 1 h at room temperature with 100 µg/ml trypsin; phage input 5.64E+09
[32] = molecular target: human TNFR1 (soluble recombinant protein) (human) (UniProt P19438); test: phage ELISA on plate coated with 1 nM TNFR1, anti-M13-HRP; phage treated 1 h at room temperature with 100 µg/ml trypsin; phage input 7.05E+08
[33] = molecular target: T1, TNFR1-FC fusion (human, UniProt P19438 22-211); test: human TNFR1 receptor binding assay: inhibition of the binding of TNF-alpha (10 ng/ml) to bead-captured TNFR1-Fc; four replicates
T1 construct: not shown: Fc part not described (captured with goat anti-human IgG (H&L))
T1 sequence (looked up): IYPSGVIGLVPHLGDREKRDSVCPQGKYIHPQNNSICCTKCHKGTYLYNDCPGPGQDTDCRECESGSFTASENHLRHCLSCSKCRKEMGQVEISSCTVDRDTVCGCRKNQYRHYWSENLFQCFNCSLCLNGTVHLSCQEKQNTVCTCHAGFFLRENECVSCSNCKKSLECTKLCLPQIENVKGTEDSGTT

Work on DOM1h-131 phage yielded a phage ELISA signal [1] of 0.949, a phage ELISA signal [2] of 0.85 and a phage ELISA signal [3] of 0.944. The phage ELISA signal [4] was 0.946, the phage ELISA signal [5] was 0.577 and the phage ELISA signal [6] was 0.916. The phage ELISA signal [7] was 0.962, the phage ELISA signal [8] was 0.705 and the phage ELISA signal [9] was 0.183. It also gave a phage ELISA signal [10] of 0.089, a phage ELISA signal [11] of 0.229 and a phage ELISA signal [12] of 0.114. It also gave a phage ELISA signal [13] of 0.08, a phage ELISA signal [14] of 0.284 and a phage ELISA signal [15] of 0.133. For the same molecule, the phage ELISA signal [16] was 0.084, the phage ELISA signal [17] was 0.86 and the phage ELISA signal [18] was 0.409. It also gave a phage ELISA signal [19] of 0.802, a phage ELISA signal [20] of 0.573 and a phage ELISA signal [21] of 0.213. For the same molecule, the phage ELISA signal [22] was 0.784, the phage ELISA signal [23] was 0.695 and the phage ELISA signal [24] was 0.286. For the same molecule, the phage ELISA signal [25] was 0.284, the phage ELISA signal [26] was 0.115 and the phage ELISA signal [27] was 0.377. The phage ELISA signal [28] was 0.141, the phage ELISA signal [29] was 0.084 and the phage ELISA signal [30] was 0.418. For the same molecule, the phage ELISA signal [31] was 0.196 and the phage ELISA signal [32] was 0.084.

B1: DOM1h-131-202 (other)
VH: EVQLLESGGGLVQPGGSLRLSCAASGFTFAHETMVWVRQAPGKGLEWVSHIPPDGQDPFYADSVKGRFTISRDNSKNTLYLQMNSLRAEDTAVYYCALLPKRGPWFDYWGQGTLVTVSS
notes: also called GSK1922567A
For B1, the “IC50 (read off the curve)” value [33] was about 0.2 nM.
